Assay results as given in the Human Domainome abundance scans (Beltran et al. 2025).
± gives the uncertainty stated by the source.

B1: POU domain, class 3, transcription factor 3, residues 408 to 463; numbered along this chain, P20264 (parent)
chain: KKRTSIEVSVKGALESHFLKCPKPSAQEITNLADSLQLEKEVVRVWFCNRRQKEKR

Variants of: B1
Assay: abundance fitness (aPCA) (normalised: wild type 0, dead -1); higher = more abundant; growth selection in yeast, the domain comes from the species named
Conditions: Homo sapiens

KKRTSIEVSAKGALESHFLKCPKPSAQEITNLADSLQLEKEVVRVWFCNRRQKEKR [V10A] and KKRTSIEVSIKGALESHFLKCPKPSAQEITNLADSLQLEKEVVRVWFCNRRQKEKR [V10I] are within error of each other in abundance fitness: -0.005 ± 0.086 for the first, -0.066 ± 0.096 for the second.

KKRTSIEVSHKGALESHFLKCPKPSAQEITNLADSLQLEKEVVRVWFCNRRQKEKR [V10H] and KKRTSIEVSYKGALESHFLKCPKPSAQEITNLADSLQLEKEVVRVWFCNRRQKEKR [V10Y] are within error of each other in abundance fitness: 0.072 ± 0.18 for the first, -0.129 ± 0.2 for the second.

First: KKRTSIEVSSKGALESHFLKCPKPSAQEITNLADSLQLEKEVVRVWFCNRRQKEKR [V10S]
Second: KKRTSIEVSQKGALESHFLKCPKPSAQEITNLADSLQLEKEVVRVWFCNRRQKEKR [V10Q]
The abundance fitness of the first is lower: -0.153 ± 0.089 for the first, 0.07 ± 0.13 for the second.

KKRTSIEVSNKGALESHFLKCPKPSAQEITNLADSLQLEKEVVRVWFCNRRQKEKR [V10N] and KKRTSIEVSKKGALESHFLKCPKPSAQEITNLADSLQLEKEVVRVWFCNRRQKEKR [V10K] are within error of each other in abundance fitness: -0.148 ± 0.18 for the first, -0.032 ± 0.13 for the second.

Going from KKRTSIEVSRKGALESHFLKCPKPSAQEITNLADSLQLEKEVVRVWFCNRRQKEKR [V10R] to KKRTSIEVSDKGALESHFLKCPKPSAQEITNLADSLQLEKEVVRVWFCNRRQKEKR [V10D], the abundance fitness rises from -0.108 ± 0.075 to 0.176 ± 0.15.

KKRTSIEVSFKGALESHFLKCPKPSAQEITNLADSLQLEKEVVRVWFCNRRQKEKR [V10F] and KKRTSWEVSVKGALESHFLKCPKPSAQEITNLADSLQLEKEVVRVWFCNRRQKEKR [I6W] are within error of each other in abundance fitness: -0.291 ± 0.15 for the first, -0.124 ± 0.088 for the second.

KKRTSYEVSVKGALESHFLKCPKPSAQEITNLADSLQLEKEVVRVWFCNRRQKEKR [I6Y] and KKRTSTEVSVKGALESHFLKCPKPSAQEITNLADSLQLEKEVVRVWFCNRRQKEKR [I6T] are within error of each other in abundance fitness: -0.189 ± 0.12 for the first, 0.058 ± 0.13 for the second.

Going from KKRTSVEVSVKGALESHFLKCPKPSAQEITNLADSLQLEKEVVRVWFCNRRQKEKR [I6V] to KKRTSINVSVKGALESHFLKCPKPSAQEITNLADSLQLEKEVVRVWFCNRRQKEKR [E7N], the abundance fitness rises from -0.093 ± 0.082 to 0.063 ± 0.06.

KKRTSIRVSVKGALESHFLKCPKPSAQEITNLADSLQLEKEVVRVWFCNRRQKEKR [E7R] and KKRTSIQVSVKGALESHFLKCPKPSAQEITNLADSLQLEKEVVRVWFCNRRQKEKR [E7Q] are within error of each other in abundance fitness: -0.057 ± 0.063 for the first, -0.035 ± 0.071 for the second.

KKRTSIFVSVKGALESHFLKCPKPSAQEITNLADSLQLEKEVVRVWFCNRRQKEKR [E7F] and KKRTSIVVSVKGALESHFLKCPKPSAQEITNLADSLQLEKEVVRVWFCNRRQKEKR [E7V] are within error of each other in abundance fitness: -0.263 ± 0.063 for the first, -0.197 ± 0.069 for the second.

Going from KKRTSIWVSVKGALESHFLKCPKPSAQEITNLADSLQLEKEVVRVWFCNRRQKEKR [E7W] to KKRTSIDVSVKGALESHFLKCPKPSAQEITNLADSLQLEKEVVRVWFCNRRQKEKR [E7D], the abundance fitness rises from -0.436 ± 0.21 to 0.05 ± 0.08.

First: KKRTSISVSVKGALESHFLKCPKPSAQEITNLADSLQLEKEVVRVWFCNRRQKEKR [E7S]
Second: KKRTSILVSVKGALESHFLKCPKPSAQEITNLADSLQLEKEVVRVWFCNRRQKEKR [E7L]
The abundance fitness of the first is higher: 0.144 ± 0.052 for the first, -0.09 ± 0.05 for the second.

KKRTSIGVSVKGALESHFLKCPKPSAQEITNLADSLQLEKEVVRVWFCNRRQKEKR [E7G] and KKRTSIMVSVKGALESHFLKCPKPSAQEITNLADSLQLEKEVVRVWFCNRRQKEKR [E7M] are within error of each other in abundance fitness: 0.013 ± 0.085 for the first, -0.035 ± 0.075 for the second.

KKRTSITVSVKGALESHFLKCPKPSAQEITNLADSLQLEKEVVRVWFCNRRQKEKR [E7T] and KKRTSIPVSVKGALESHFLKCPKPSAQEITNLADSLQLEKEVVRVWFCNRRQKEKR [E7P] are within error of each other in abundance fitness: 0.134 ± 0.056 for the first, 0.167 ± 0.051 for the second.

Compared with KKRTSIYVSVKGALESHFLKCPKPSAQEITNLADSLQLEKEVVRVWFCNRRQKEKR [E7Y], KKRTSIIVSVKGALESHFLKCPKPSAQEITNLADSLQLEKEVVRVWFCNRRQKEKR [E7I] is higher in abundance fitness: -0.3 ± 0.06 for the first, -0.157 ± 0.069 for the second.

KKRTSIKVSVKGALESHFLKCPKPSAQEITNLADSLQLEKEVVRVWFCNRRQKEKR [E7K] and KKRTSIAVSVKGALESHFLKCPKPSAQEITNLADSLQLEKEVVRVWFCNRRQKEKR [E7A] are within error of each other in abundance fitness: 0.028 ± 0.1 for the first, -0.096 ± 0.064 for the second.

KKRTSIHVSVKGALESHFLKCPKPSAQEITNLADSLQLEKEVVRVWFCNRRQKEKR [E7H] and KKRTSIEVSVIGALESHFLKCPKPSAQEITNLADSLQLEKEVVRVWFCNRRQKEKR [K11I] are within error of each other in abundance fitness: -0.016 ± 0.057 for the first, -0.006 ± 0.11 for the second.

KKRTSIEVSVHGALESHFLKCPKPSAQEITNLADSLQLEKEVVRVWFCNRRQKEKR [K11H] and KKRTSIEVSVGGALESHFLKCPKPSAQEITNLADSLQLEKEVVRVWFCNRRQKEKR [K11G] are within error of each other in abundance fitness: -0.04 ± 0.12 for the first, -0.135 ± 0.067 for the second.

KKRTSIEVSVAGALESHFLKCPKPSAQEITNLADSLQLEKEVVRVWFCNRRQKEKR [K11A] and KKRTSIEVSVQGALESHFLKCPKPSAQEITNLADSLQLEKEVVRVWFCNRRQKEKR [K11Q] are within error of each other in abundance fitness: -0.099 ± 0.092 for the first, -0.015 ± 0.12 for the second.

KKRTSIEVSVPGALESHFLKCPKPSAQEITNLADSLQLEKEVVRVWFCNRRQKEKR [K11P] and KKRTSIEVSVRGALESHFLKCPKPSAQEITNLADSLQLEKEVVRVWFCNRRQKEKR [K11R] are within error of each other in abundance fitness: -0.024 ± 0.12 for the first, -0.045 ± 0.067 for the second.

KKRTSIEVSVNGALESHFLKCPKPSAQEITNLADSLQLEKEVVRVWFCNRRQKEKR [K11N] and KKRTSIEVSVWGALESHFLKCPKPSAQEITNLADSLQLEKEVVRVWFCNRRQKEKR [K11W] are within error of each other in abundance fitness: -0.27 ± 0.15 for the first, -0.116 ± 0.089 for the second.

KKRTSIEVSVMGALESHFLKCPKPSAQEITNLADSLQLEKEVVRVWFCNRRQKEKR [K11M] and KKRTSIEVSVYGALESHFLKCPKPSAQEITNLADSLQLEKEVVRVWFCNRRQKEKR [K11Y] are within error of each other in abundance fitness: -0.006 ± 0.16 for the first, 0.067 ± 0.12 for the second.

KKRTSIEVSVFGALESHFLKCPKPSAQEITNLADSLQLEKEVVRVWFCNRRQKEKR [K11F] and KKRTSIEVSVCGALESHFLKCPKPSAQEITNLADSLQLEKEVVRVWFCNRRQKEKR [K11C] are within error of each other in abundance fitness: -0.186 ± 0.12 for the first, -0.141 ± 0.094 for the second.

In the case of KKRTSIEVSVVGALESHFLKCPKPSAQEITNLADSLQLEKEVVRVWFCNRRQKEKR [K11V], the abundance fitness is reported as -0.085 ± 0.073.
